Measurements from IntAct's records for PubMed 10198631.

B1: Bcl-2-like protein 11 (Mus musculus), O54918-2 (parent)
chain: MAKQPSDVSSECDREGGQLQPAERPPQLRPGAPTSLQTEPQDRSPAPMSCDKSTQTPSPPCQAFNHYLSAMASIRQSQEEPEDLRPEIRIAQELRRIGDEFNETYTRRVFANDYREAEDHPQMVILQLLRFIFRLVWRRH

Variants of: B1
Details: with dlrb1_human DYNLRB1, Q9NP97
Chain of dlrb1_human DYNLRB1, Q9NP97 (Q9NP97 whole entry): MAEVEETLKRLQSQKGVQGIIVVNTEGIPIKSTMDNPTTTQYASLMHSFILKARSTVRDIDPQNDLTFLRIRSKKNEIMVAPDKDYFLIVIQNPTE

Which “effect of a mutation on the interaction” value does the source give for S53P here?
Its value is “decreasing interaction”.

With T54A;N65S as the variant, how does the “effect of a mutation on the interaction” value read?
Its value is “decreasing interaction”.

For T54A, which “effect of a mutation on the interaction” value is on record?
Its value is “decreasing interaction”.
